Molecular target: T1, DFNB31_2, Q9P202
T1 sequence (Q9P202 274-371, limits assumed, looked up): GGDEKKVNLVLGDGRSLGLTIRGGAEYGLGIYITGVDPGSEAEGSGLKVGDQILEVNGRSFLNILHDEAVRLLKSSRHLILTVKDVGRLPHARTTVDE
Assay: holdup assay
Design: key: below the threshold = too weak to quantify, mostly under pKd 3.1 to 4

[1] = plain residues with an end cap or a label only (N-terminal biotin on a linker: ado-ado)

RKPKPSSSCC [RAB9A, P51151]
pKd [1]: below the threshold

NLSIEKETKL [ASNSD1, Q9NWL6]
pKd [1]: 3.94

TASPAKETSF [SLC2A7, Q6PXP3]
pKd [1]: below the threshold

AKPSRISTVV [IQSEC2, Q5JU85]
pKd [1]: below the threshold

SARSRLSSNL [HCN2, Q9UL51]
pKd [1]: below the threshold

QPCFNKLFPL [LPXN, O60711]
pKd [1]: below the threshold

TSQESEDTYL [TBC1D10A, Q9BXI6]
pKd [1]: below the threshold

QKNRKAQEDL [CES3, Q6UWW8]
pKd [1]: below the threshold

IKAIVDLTGL [TRAF2, Q12933]
pKd [1]: below the threshold

TSSMRGMDAV [RSRC2, Q7L4I2]
pKd [1]: below the threshold

DDEDRLVIEI [ZNF831, Q5JPB2]
pKd [1]: below the threshold

SKENVQETQI [LRRC4B, Q9NT99]
pKd [1]: below the threshold

YLEPVLSSEL [ATP2A2, P16615;P16615-3]
pKd [1]: below the threshold

IPLDGETEEL [MYOZ1, Q9NP98]
pKd [1]: below the threshold

EVNETDDTKM [KCNJ1, P48048]
pKd [1]: below the threshold

QSLNRMEYIV [JAG1, P78504]
pKd [1]: below the threshold

EALLQMESVA [CAVIN3, Q969G5]
pKd [1]: below the threshold

QSARLWETSI [ADAM22, Q9P0K1]
pKd [1]: 3.57

ETQVTAETVI [TMEM225B, P0DP42]
pKd [1]: below the threshold

LPHGHSTTRV [NLGN4X, Q8N0W4]
pKd [1]: below the threshold

QSPANIYYKV [EFNB1, P52799]
pKd [1]: below the threshold

FNSYSLTGYV [CLDN2, P57739]
pKd [1]: below the threshold

YRLAQESGLV [ABCC6, O95255]
pKd [1]: below the threshold

SAAKVLTSMC [GHRHR, Q02643]
pKd [1]: below the threshold

GQEEQVTTRL [TRPC5, Q9UL62]
pKd [1]: below the threshold

TLPRKRMSSI [GPRC6A, Q5T6X5]
pKd [1]: below the threshold

PAPSSGKDYV [CLDN1, O95832]
pKd [1]: below the threshold

KSGKQTMLVV [TRIM29, Q14134;Q14134-2]
pKd [1]: below the threshold

TKGPRGPTRV [SAPCD1, Q5SSQ6]
pKd [1]: below the threshold

GNSVLKSTQF [SLC22A12, Q96S37]
pKd [1]: below the threshold

QGPVETESVV [SLC45A4, Q5BKX6]
pKd [1]: below the threshold

RHGSCVETSL [TMEM151B, Q8IW70]
pKd [1]: below the threshold

VYPNAKVELV [PDLIM4_iso2, P50479;P50479-1]
pKd [1]: below the threshold

VDSTVKVWTC [TRAF7, Q6Q0C0]
pKd [1]: below the threshold

DDPSTAETVL [ABCA7, Q8IZY2]
pKd [1]: below the threshold

VKPQVSESKL [ACOT8, O14734]
pKd [1]: 3.62

GSGAVEMESV [AQP6, Q13520]
pKd [1]: below the threshold

SSALYGESDL [ACTN2, P35609]
pKd [1]: below the threshold

MLSKQSESAI [FLVCR1, Q9Y5Y0]
pKd [1]: below the threshold

SGSLKLMTTV [DACT1, Q9NYF0]
pKd [1]: below the threshold

PEYLGLDVPV [ERBB2, P04626]
pKd [1]: below the threshold

PRAEAEDSFL [PDGFRB, P09619]
pKd [1]: below the threshold

VNKSKLLTDV [KCNA1, Q09470]
pKd [1]: below the threshold

LPHPHSTTRV [NLGN2, Q8NFZ4]
pKd [1]: below the threshold

PKRSFIESNV [TANC1, Q9C0D5]
pKd [1]: below the threshold

TACCHSETVV [TGFA, P01135]
pKd [1]: below the threshold

DTTVPESEDL [MYOZ2, Q9NPC6]
pKd [1]: below the threshold

HLRARKSEWV [GJD4, Q96KN9]
pKd [1]: below the threshold

VRNLPESEEL [MYOZ3, Q8TDC0]
pKd [1]: below the threshold

QGLAERISVL [PRKD2, Q9BZL6]
pKd [1]: below the threshold

RLQRRRETQV [HPV18-E6_-2P, P06463]
pKd (modified: phospho on T at position -2 from the C-terminal residue): below the threshold

KKAPTNEFYA [SDC4, P31431]
pKd [1]: below the threshold

LKVPPEERLI [CRB2, Q5IJ48]
pKd [1]: below the threshold

HSGYRLNDYV [CLDN14, O95500]
pKd [1]: below the threshold

QHKTQLQTLI [BPIFA2, Q96DR5]
pKd [1]: below the threshold

EVEEFPETSV [TRPV3, Q8NET8]
pKd [1]: 3.5

KKMPSIESDV [GRIN2A, Q12879]
pKd [1]: below the threshold

YYKRPVQEWV [MMP24, Q9Y5R2]
pKd [1]: below the threshold

TPPAAKKSRI [BAZ1A, Q9NRL2]
pKd [1]: below the threshold

PDGQCTVTEV [RNF146, Q9NTX7]
pKd [1]: below the threshold

SKSNFGSEPL [KIF17, Q9P2E2]
pKd [1]: below the threshold

DDENIRTSDV [PLEKHA2, Q9HB19]
pKd [1]: below the threshold

QMNQTLPVQV [EPHB3, P54753]
pKd [1]: below the threshold

NHSSSPETTA [TRMT13, Q9NUP7]
pKd [1]: below the threshold

LSEFKAMDSI [CTNNA1, P35221]
pKd [1]: below the threshold

EKKTLIGIKL [GOT1L1, Q8NHS2]
pKd [1]: below the threshold

SAKVRTVTSV [RASL11B, Q9BPW5]
pKd [1]: below the threshold

PRISRSQSEL [CCDC134, Q9H6E4]
pKd [1]: below the threshold

SNAGNTATKA [NOSTRIN, Q8IVI9]
pKd [1]: below the threshold

— publication PMC9482650, “Quantitative fragmentomics allow affinity mapping of interactomes” (Nature Communications, 2022)
